In US20240240203A1:

Tests used:
[1] = molecular target: Ad5 hexon capsid protein with DogTag inserted into the HVR5 loop, on Ad5 virions (Ad5-HVR5-DogTag) (human adenovirus serotype 5 (Ad5)) (UniProt P04133)
[2] = molecular target: Ad5 hexon capsid protein with DogTag inserted into the HVR5 loop, on Ad5 virions (Ad5-HVR5-DogTag) (human adenovirus serotype 5 (Ad5)) (UniProt P04133); remark: listed apart in the source

“DogCatcher fused to SARS CoV-2 Spike receptor binding domain (Wuhan strain, residues 319-532) (from UniProt P0DTC2 319-532)” gave a coupling efficiency (% total hexon protein coupled) [1] of 64%.
“DogCatcher fused to the receptor binding domain of haemagglutinin (HA) from Influenza A (H1 A/Califo” showed a coupling efficiency (% hexon coupled) [2] of 44%.
